In paper doi:10.1101/869123:

What was measured:
[1] = molecular target: CRIPT^L4 (CRIPT mutants with substitutions to any of the last four cysteines), co-IP from mitotic HeLa cells; assay: co-IP
[2] = molecular target: CRIPT^S4 (CRIPT mutants with substitutions to any of the first four cysteines), co-IP from mitotic HeLa cells; assay: co-IP

fold of tubulin brought down relative to wild-type CRIPT [1] | fold of tubulin brought down relative to wild-type CRIPT [2] | Substance
> 2 fold | > 2 fold | α-tubulin, endogenous, mitotic HeLa cells (from UniProt P68363 1-451) (natural protein)
> 2 fold | > 2 fold | β-tubulin, endogenous, mitotic HeLa cells (from UniProt P07437 1-444) (natural protein)
